In patent US20140162285A1, “Methods of Modulating Vesicular Trafficking” (The General Hospital Corporation, priority 2009, published 2014):
“Also recorded” adds a separate entry of the source. Ends that are not written are not given here. * marks the point of attachment. FITC = O=C1OC2(c3ccc(O)cc3Oc3cc(O)ccc32)c2ccc(NC(=S)*)cc21; Biotin = O=C1N[C@H]2[C@H](CS[C@H]2CCCCC(=O)*)N1; βAla = NCCC(=O)O

Legend:
[1] = target: T1, GST-ARNO(wt) (Homo sapiens, UniProt Q99418); assay: a2N-derived peptide pull-down assay with GST-ARNO(wt); type: binding; set-up: key to interaction with ARNO (asterisk mark in Table 1): The interacting peptides are indicated in bold with an asterisk (*)
T1 construct: i) 1-400aa, full length ARNO(wt); made in house; host or cells: E. coli BL21(DE3)
T1 sequence (Q99418 1-400): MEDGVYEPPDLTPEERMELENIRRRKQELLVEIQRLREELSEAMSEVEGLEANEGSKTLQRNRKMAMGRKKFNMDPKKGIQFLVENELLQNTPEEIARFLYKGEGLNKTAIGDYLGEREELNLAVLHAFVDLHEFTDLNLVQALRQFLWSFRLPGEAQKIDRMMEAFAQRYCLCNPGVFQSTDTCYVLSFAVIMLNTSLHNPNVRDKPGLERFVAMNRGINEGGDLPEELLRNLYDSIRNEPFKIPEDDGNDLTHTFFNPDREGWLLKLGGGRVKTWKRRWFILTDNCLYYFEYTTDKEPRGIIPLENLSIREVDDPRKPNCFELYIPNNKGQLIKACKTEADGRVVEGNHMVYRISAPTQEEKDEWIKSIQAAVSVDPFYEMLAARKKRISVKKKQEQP
Procedure: FIG. 2A is an image of a Western blot showing the results of an a2N-derived peptide pull-down assay. The indicated a2N-derived peptides were immobilized on streptavidin-beads and incubated with purified recombinant GST-ARNO(wt). Interacting complexes were eluted and analyzed by Western blotting using monoclonal anti-GST antibodies.
FIG. 2B is an image of a Western blot showing the results of a pull-down assay with selected a2N-derived interacting peptides incubated with either GST (negative control) or GST-ARNO(wt). The first two lanes show the patterns obtained when either GST-only (lane 1) or GST-ARNO(wt) (lane 2) were loaded onto the gel.
Peptides were synthesized, purified by HPLC and analyzed by mass spectrometry in the MGH Peptide/Protein Core Facility. All a2N-derived peptides were synthesized with a biotin-tag on the N-terminus for immobilization on streptavidin-agarose beads and with an additional C-terminal cysteine residue for immobilization on beads using sulfhydryl-specific crosslinkers. A peptide corresponding to the PB-domain of ARNO was synthesized containing either a non-phosphorylated or a phosphorylated Ser392 residue. Peptide stock solutions were prepared in DMSO at 5 mM concentration and stored at −20° C. […]

[2] = target: T2, Sec7-domain of ARNO (Homo sapiens, UniProt Q99418); assay: a2N-derived peptide pull-down with GST-Sec7 domain; type: binding; settings: GST-Sec7-6His
T2 construct: iii) 61-252aa, Sec7 domain; GST (N, cleaved yes); made in house; host or cells: E. coli BL21(DE3)
T2 sequence (Q99418 61-252): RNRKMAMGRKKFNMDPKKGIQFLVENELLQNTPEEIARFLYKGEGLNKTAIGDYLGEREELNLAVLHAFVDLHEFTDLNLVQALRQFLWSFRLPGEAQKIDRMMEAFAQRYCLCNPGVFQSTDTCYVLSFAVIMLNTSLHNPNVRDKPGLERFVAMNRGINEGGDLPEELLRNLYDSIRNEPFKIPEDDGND
Procedure: (§1) FIGS. 5A-C are a set of three images of Western blots showing the identification of interaction motif of a2N that is involved in specific binding with the Sec7 domain of ARNO. 5A, The catalytic Sec7 domain of ARNO interacts with two a2N-derived peptides, a2N-01 and a2N-03, in pull-down experiments. The peptide pull-down assay was performed with six a2N-derived interaction peptides immobilized on streptavidin-beads and incubated with purified recombinant GST-only or GST-Sec7 domain. Interacting complexes were eluted and analyzed by Western blotting using monoclonal anti-GST antibodies as described below. The loading controls for GST-only (lane 1) or GST-Sec7 (lane 2) are shown. […] The peptide pull-down assay was performed with peptides a2N-01 and a2N-03 immobilized on streptavidin-beads and incubated with purified recombinant GST-PH domain (5B) or GST-PB domain (5C). Interacting complexes were eluted and analyzed by Western blotting using monoclonal anti-GST antibodies. […]
These a2N-derived peptides were immobilized by an N-terminal biotin-tag, which ensured the same efficiency and equivalent binding to streptavidin-agarose beads. […] After washing beads four times in ice-cold binding buffer, the interacting complexes were eluted by boiling in SDS-PAGE sample buffer for 10 min at 95° C., resolved by SDS-PAGE and analyzed by Western blotting using monoclonal anti-GST antibody.

[3] = target: T3, PH-domain of ARNO (Homo sapiens, UniProt Q99418); assay: a2N-derived peptide pull-down with GST-PH domain; type: binding
T3 construct: iv) 253-378aa, plekstrin-homology (PH) domain; made in house; host or cells: E. coli BL21(DE3)
T3 sequence (Q99418 253-378): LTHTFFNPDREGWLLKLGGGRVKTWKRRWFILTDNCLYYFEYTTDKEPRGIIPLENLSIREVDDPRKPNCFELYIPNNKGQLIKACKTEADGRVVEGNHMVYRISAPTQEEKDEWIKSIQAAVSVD
Procedure: as §1
(§2) These a2N-derived peptides were immobilized by an N-terminal biotin-tag, which ensured the same efficiency and equivalent binding to streptavidin-agarose beads. […] After washing beads four times in ice-cold binding buffer, the interacting complexes were eluted by boiling in SDS-PAGE sample buffer for 10 min at 95° C., resolved by SDS-PAGE and analyzed by Western blotting using monoclonal anti-GST antibody. […]

[4] = target: T4, PB-domain of ARNO (Homo sapiens, UniProt Q99418); assay: a2N-derived peptide pull-down with GST-PB domain; type: binding
T4 construct: v) 379-400aa, polybasic (PB) domain; made in house; host or cells: E. coli BL21(DE3)
Procedure: as §1, §2

[5] = target: Sec7-6His recombinant protein (human) (UniProt Q99418); assay: calculated from the SPR KD (deltaG = RT ln KD)
[6] = target: Sec7-6His recombinant protein (human) (UniProt Q99418); assay: SPR (BIAcore T100), biotinylated a2N-01 captured on neutravidin, Sec7-6His as analyte, 1:1 fit
[7] = target: T5, GST-only (UniProt P08515 1-218 = GST); assay: peptide pull-down: biotinylated peptide on streptavidin beads, GST-only in solution, Western blot with anti-GST antibody
T5 construct: Control bait/prey in pull-down assays; also called GST (negative control)

[8] = target: T6, recombinant ARNO (human, UniProt Q99418 1-400, limits assumed); assay: cell-based or functional assay
T6 sequence (looked up): T1 sequence (Q99418 1-400)

T5 sequence (P08515 whole entry): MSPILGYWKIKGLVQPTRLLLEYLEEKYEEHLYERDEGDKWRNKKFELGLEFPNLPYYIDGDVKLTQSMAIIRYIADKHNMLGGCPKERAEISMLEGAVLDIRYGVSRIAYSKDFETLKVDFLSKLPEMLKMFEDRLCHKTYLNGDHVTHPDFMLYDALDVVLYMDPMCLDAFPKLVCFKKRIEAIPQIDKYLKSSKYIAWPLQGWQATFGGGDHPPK

## Bio-VQFRDLNQNVSSFQR-Cys (VQFRDLNQNVSSFQRC) [a2N-03, AA 35-49 of a2N]
[1]; Western blot anti-GST, GST-only as control
  interaction of a2N-derived peptide with GST-ARNO(wt) in pull-down: specific interaction; also recorded: capable of interaction with ARNO
[1]; biotin-tagged peptides on streptavidin beads
  interaction with ARNO (asterisk mark in Table 1): Bio-VQFRDLNQNVSSFQR-Cys *
[2]
  interaction with Sec7-domain of ARNO: interacts
[3]
  interaction with PH-domain of ARNO: interacts equally well
[4]
  interaction with PB-domain of ARNO: interacts equally well

B1: a2N-01 (peptide)
peptide: Biotin-MGSLFRSESMCLAQLFLC
modifications: cysteine pairing not given here
notes: Synthetic peptide from the mouse V-ATPase a2-subunit N-terminal tail; Bio- at N-terminus, extra Cys at C-terminus; also called a2N1-17; biotinylated a2N-01 peptide
[5]
  free energy of binding: -8.81 kcal/mol
[6]
  Kd: 344 nM
  koff: 0.00086 s⁻¹
  kon: 2500 M⁻¹ s⁻¹
[7]
  binding result: no binding

## {FITC-βAla}-MGSLFRSESMCLAQLFLYGRKKRRQRRR [FITC-a2N-01-TAT]
[8]
  IC50 of inhibition of ARNO's GEF activity (radiolabel GDP/GTP-exchange assay, 5% PIP2 vesicles): ~700 nM
